In patent publication US20050282743A1, “Molecular interactions in cells” (Arbor Vita Corporation, priority 2001, published 2005):
Ends that are not written are not given here. Peptide text beside a SMILES is read from it. * marks the point of attachment. Biotin = O=C1N[C@H]2[C@H](CS[C@H]2CCCCC(=O)*)N1

Experiments:
Experiment in all cases: G' assay (10 uM PL peptide), results of TABLE 7 and TABLE 12
Assay type in all cases: binding
[1] = biological target: T1, PDZ protein (GST-PDZ fusion) (Homo sapiens, UniProt Q9NR12); conditions: PDZ ENIGMA, PDZ Domain 1
T1 construct: made in house; host or cells: E. coli (DH5alpha, BL21 or JM109)
T1 sequence (Q9NR12 whole entry, the tested form may be a part): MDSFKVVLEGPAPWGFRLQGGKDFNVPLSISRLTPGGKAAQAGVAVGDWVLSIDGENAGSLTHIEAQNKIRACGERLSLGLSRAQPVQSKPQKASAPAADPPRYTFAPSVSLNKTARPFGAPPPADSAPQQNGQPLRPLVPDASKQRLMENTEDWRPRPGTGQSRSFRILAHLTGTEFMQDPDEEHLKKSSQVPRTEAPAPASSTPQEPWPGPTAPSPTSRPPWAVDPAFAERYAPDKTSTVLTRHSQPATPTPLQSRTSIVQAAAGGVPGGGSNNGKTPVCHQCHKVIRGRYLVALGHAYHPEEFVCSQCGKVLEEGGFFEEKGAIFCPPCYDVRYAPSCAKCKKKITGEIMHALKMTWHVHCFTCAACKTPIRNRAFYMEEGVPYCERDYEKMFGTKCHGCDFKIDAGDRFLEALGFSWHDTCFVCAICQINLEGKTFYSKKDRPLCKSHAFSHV
Summary of the method: (§1)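 Biotin-PL peptide (N-term label), 10 uM vs GST-PDZ; protein 5 ug/ml by default. A450 nm binned: 1 = 0-1, 2 = 1-2, 3 = 2-3, 4 = 3-4, 5 = >4 on >2 repeats, 0 = no binding.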

[2] = biological target: T2, PDZ protein (GST-PDZ fusion) (Homo sapiens, UniProt O95049)
T2 construct: made in house; host or cells: E. coli (DH5alpha, BL21 or JM109)
T2 sequence (O95049 1-919): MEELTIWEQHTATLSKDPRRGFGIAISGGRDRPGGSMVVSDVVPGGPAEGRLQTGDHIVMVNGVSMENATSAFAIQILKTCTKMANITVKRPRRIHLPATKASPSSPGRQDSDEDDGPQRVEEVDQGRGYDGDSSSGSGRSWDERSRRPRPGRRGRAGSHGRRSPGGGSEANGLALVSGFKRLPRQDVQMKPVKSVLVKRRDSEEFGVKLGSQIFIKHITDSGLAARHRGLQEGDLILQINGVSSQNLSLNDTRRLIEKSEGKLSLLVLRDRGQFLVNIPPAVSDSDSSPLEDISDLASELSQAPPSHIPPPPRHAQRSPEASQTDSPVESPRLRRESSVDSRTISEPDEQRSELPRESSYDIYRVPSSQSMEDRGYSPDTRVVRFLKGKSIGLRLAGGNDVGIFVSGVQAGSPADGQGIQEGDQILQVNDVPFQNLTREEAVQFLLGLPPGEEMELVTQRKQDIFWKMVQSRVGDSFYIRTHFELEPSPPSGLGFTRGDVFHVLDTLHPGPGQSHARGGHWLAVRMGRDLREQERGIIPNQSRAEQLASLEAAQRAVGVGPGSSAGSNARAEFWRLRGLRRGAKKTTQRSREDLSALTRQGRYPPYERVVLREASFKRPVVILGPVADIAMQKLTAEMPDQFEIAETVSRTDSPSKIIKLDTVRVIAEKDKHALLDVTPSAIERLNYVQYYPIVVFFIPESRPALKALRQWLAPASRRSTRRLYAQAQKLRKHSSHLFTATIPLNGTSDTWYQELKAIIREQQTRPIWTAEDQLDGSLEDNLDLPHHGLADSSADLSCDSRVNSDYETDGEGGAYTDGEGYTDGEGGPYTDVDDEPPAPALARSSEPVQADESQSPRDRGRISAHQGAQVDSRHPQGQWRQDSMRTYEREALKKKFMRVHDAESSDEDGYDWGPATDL
Summary of the method: as §1

[3] = biological target: T3, PDZ protein (GST-PDZ fusion) (Homo sapiens, UniProt Q99767); conditions: PDZ X11-beta
T3 construct: made in house; host or cells: E. coli (DH5alpha, BL21 or JM109)
T3 sequence (Q99767 1-749): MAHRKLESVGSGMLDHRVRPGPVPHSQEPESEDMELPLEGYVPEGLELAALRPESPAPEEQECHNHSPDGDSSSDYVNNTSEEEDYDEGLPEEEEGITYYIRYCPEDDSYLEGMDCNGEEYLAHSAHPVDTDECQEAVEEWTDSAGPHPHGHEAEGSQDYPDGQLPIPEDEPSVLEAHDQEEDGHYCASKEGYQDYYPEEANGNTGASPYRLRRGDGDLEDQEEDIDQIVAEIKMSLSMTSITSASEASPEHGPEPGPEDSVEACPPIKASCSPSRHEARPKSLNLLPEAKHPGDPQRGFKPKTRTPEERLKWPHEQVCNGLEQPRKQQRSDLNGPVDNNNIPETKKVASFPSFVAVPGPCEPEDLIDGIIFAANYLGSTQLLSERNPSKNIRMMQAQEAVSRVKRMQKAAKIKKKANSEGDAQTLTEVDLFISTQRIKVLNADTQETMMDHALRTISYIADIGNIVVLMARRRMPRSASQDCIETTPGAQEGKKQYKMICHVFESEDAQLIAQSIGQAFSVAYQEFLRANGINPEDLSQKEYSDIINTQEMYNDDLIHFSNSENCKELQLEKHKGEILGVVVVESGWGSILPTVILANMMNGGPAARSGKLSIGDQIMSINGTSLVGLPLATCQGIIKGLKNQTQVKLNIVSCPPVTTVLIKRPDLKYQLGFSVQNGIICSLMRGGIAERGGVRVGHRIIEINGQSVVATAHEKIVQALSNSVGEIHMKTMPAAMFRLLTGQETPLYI
Summary of the method: as §1

Row | Compound | Classification [1] | Classification ([2]; PDZ ZO-3, PDZ Domain 3) | Classification ([3]; PDZ Domain 2) | other results
1 | GGGGGSGGGGGSGIESVKI [GLUR2 (glutamate receptor 2-modified)] | 1 (A450 nm 0-1) | – | – | –
2 | ELLQFCRTPNPALKNGQYWV (Biotin-ELLQFCRTPNPALKNGQYWV) | – | 5 (A450 nm of 4 more than 2× repeated) | 2 (A450 nm 1-2) | Classification ([2]; PDZ ZO-3, PDZ Domain 1): 2 (A450 nm 1-2)
3 | PYSELNYETSHYPASPDSWV (Biotin-PYSELNYETSHYPASPDSWV) [catenin - delta 2] | – | 3 (A450 nm 2-3) | – | –
4 | ALVLIAFCIIRRRPSAYQAL (Biotin-ALVLIAFCIIRRRPSAYQAL) [CD68] | – | – | 1 (A450 nm 0-1) | –
5 | A2AA_HUMAN (modified) (Biotin-HDFRRAFKKILARGDRKRIV; not fully specified) | – | – | 1 (A450 nm 0-1) | Classification ([2]; PDZ ZO-3, PDZ Domain 2): 3 (A450 nm 2-3); Classification ([3]; PDZ Domain 1): 2 (A450 nm 1-2)
6 | KTMPAAMFRLLTGQETPLYI (Biotin-KTMPAAMFRLLTGQETPLYI) [MINT-2] | – | 1 (A450 nm 0-1) | – | –
7 | CC[C@H](C)[C@H](NC(=O)[C@H](Cc1ccc(O)cc1)NC(=O)[C@@H](NC(=O)[C@@H]1CCCN1C(=O)[C@H](CCC(N)=O)NC(=O)[C@H](CCC(=O)O)NC(=O)[C@H](CCC(N)=O)NC(=O)[C@H](C)NC(=O)[C@@H](NC(=O)[C@H](CC(C)C)NC(=O)[C@H](CC(C)C)NC(=O)[C@H](CCCNC(=N)N)NC(=O)[C@H](Cc1ccc(O)cc1)NC(=O)[C@H](CCSC)NC(=O)[C@H](C)NC(=O)[C@H](C)NC(=O)[C@@H]1CCCN1C(=O)[C@H](CCSC)NC(=O)[C@@H](NC(=O)[C@H](CCCCN)NC(=O)CCCC[C@@H]1SC[C@@H]2NC(=O)N[C@@H]21)[C@@H](C)O)[C@@H](C)O)C(C)C)C(=O)O [MINT-1] (Biotin-KTMPAAMYRLLTAQEQPVYI-OH; C-terminus assumed) | – | 1 (A450 nm 0-1) | – | Classification ([2]; PDZ ZO-3, PDZ Domain 1): 2 (A450 nm 1-2)
8 | VHDAESSDEDGYDWGPATDL (Biotin-VHDAESSDEDGYDWGPATDL) [zona occludens 3 (ZO-3)] | 1 (A450 nm 0-1) | – | – | –
9 | CC(C)C[C@H](NC(=O)[C@H](CC(=O)O)NC(=O)[C@H](CO)NC(=O)[C@H](CCC(=O)O)NC(=O)CNC(=O)[C@H](Cc1ccc(O)cc1)NC(=O)[C@H](CC(C)C)NC(=O)[C@H](C)NC(=O)[C@H](CO)NC(=O)[C@H](CO)NC(=O)[C@H](Cc1ccccc1)NC(=O)[C@H](C)NC(=O)[C@H](C)NC(=O)[C@H](Cc1ccc(O)cc1)NC(=O)[C@H](CC(=O)O)NC(=O)[C@H](CC(C)C)NC(=O)[C@H](C)NC(=O)CNC(=O)[C@@H]1CCCN1C(=O)[C@@H](NC(=O)CCCC[C@@H]1SC[C@@H]2NC(=O)N[C@@H]21)C(C)C)C(=O)O [a-actinin 2] (Biotin-VPGALDYAAFSSALYGESDL-OH; C-terminus assumed) | 5 (A450 nm of 4 more than 2× repeated) | – | – | –
